Our source for the binding result, Ka and Kd values is patent US20090208490A1 (AbbVie / Abbott, published 2009).

Experiment [1] has as its target T1, recombinant mouse proNGF (rm-proNGF) (mouse, UniProt P01139 19-241). Description: SPR (BIAcore), antibody immobilized. A general note: SPR reads the build-up and loss of mass on a sensor chip optically.
The target of experiment [2] is T1, recombinant mouse proNGF (rm-proNGF). The experiment is described as follows: SPR (BIAcore 2000), antibody amine-coupled on CM5 chip (3000 RU), rm-proNGF injected, kinetic analysis. The method, then:
The injected concentrations of the rm-proNGF are indicated on top of each curve.
(§1) Experiments were performed on CM5 chips with amine coupling, using a BIAcore 2000 machine. Coupling was performed with a specific kit purchased at BIAcore and the coupling reaction was carried out according to manufacturer's instructions.
(§2) Anti-NGF antibodies were immobilized on chip, while mouse NGF (m-NGF, Alomone) or recombinant mouse proNGF (rm-proNGF) were injected at decreasing concentrations to obtain binding curves.

Experiment [3] addresses T2, mouse NGF (m-NGF, Alomone) (mouse, UniProt P01139 122-241).
T2 construct: mature; Commercial m-NGF
The experiment is described as follows: SPR (BIAcore 2000), antibody amine-coupled on CM5 chip, m-NGF injected. The method, then:
For m-NGF binding, the immobilization of the antibody was of 3000 resonance units (RU) in the experiment of panel A and of 6000 RU in the experiment of panel B. The injected concentrations of the m-NGF are indicated on top of each curve. From a complete analysis of the data, the affinity parameters were evaluated, and resulted to be the following.
as §1, §2

T1 sequence (P01139 19-241): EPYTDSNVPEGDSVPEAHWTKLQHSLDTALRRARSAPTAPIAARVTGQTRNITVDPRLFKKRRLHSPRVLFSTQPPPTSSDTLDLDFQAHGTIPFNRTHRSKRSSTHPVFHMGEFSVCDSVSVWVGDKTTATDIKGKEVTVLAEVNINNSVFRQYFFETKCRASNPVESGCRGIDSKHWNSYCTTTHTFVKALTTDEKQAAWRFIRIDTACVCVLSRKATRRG
T2 sequence (P01139 122-241 limits assumed): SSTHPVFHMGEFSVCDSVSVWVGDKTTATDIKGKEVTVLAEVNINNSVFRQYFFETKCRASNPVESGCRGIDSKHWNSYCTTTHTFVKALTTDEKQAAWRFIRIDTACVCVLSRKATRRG

B1: Hu-αD11 (humanized variant of the αD11 anti-NGF antibody) (antibody, V domains shown)
VH: EVQLVESGGGLVQPGGSLRLSCAASGFSLTNNNVNWVRQAPGKGLEWVGGVWAGGATDYNSALKSRFTISRDNSKNTAYLQMNSLRAEDTAVYYCARDGGYSSSTLYAMDAWGQGTLVTVSS
VL: DIQMTQSPSSLSASVGDRVTITCRASEDIYNALAWYQQKPGKAPKLLIYNTDTLHTGVPSRFSGSGSGTDYTLTISSLQPEDFATYFCQHYFHYPRTFGQGTKVEIK
notes: also called Hu-alphaD11; Hu-aD11
In the case of B1, the binding result in experiment [1] was “binds”.

B2: αD11 anti-NGF antibody (antibody, V domains shown)
VH: QVQLKESGPGLVQPSQTLSLTCTVSGFSLTNNNVNWVRQATGRGLEWMGGVWAGGATDYNSALKSRLTITRDTSKSQVFLKMHSLQSEDTATYYCARDGGYSSSTLYAMDAWGQGTTVTVSA
VL: DIQMTQSPASLSASLGETVTIECRASEDIYNALAWYQQKPGKSPQLLIYNTDTLHTGVPSRFSGSGSGTQYSLKINSLQSEDVASYFCQHYFHYPRTFGGGTKLELK
notes: Rat monoclonal antibody purified from hybridoma supernatant; the constant regions are not; also called alphaD11; aD11
On to B2, for which, in experiment [2], the Ka is 1.2e+09 M⁻¹. For the same molecule, the Kd (usually the concentration at which binding is half-saturated) in experiment [2] amounted to 1.9 nM; in experiment [3] it was 0.0028 nM.
